In patent US20250277006A1:

Molecular target: adalimumab
Assay: SPR; ligand on CM5; max response at 800 nM, rounded to 50 Ru

Substance | max response (Ru)
ZGE0214 (domain E with A/R/I at positions 33/40/51) (designed binder) | 4100 Ru
ZGE0234 (domain E with A/G/R at positions 33/40/51) (designed binder) | 2950 Ru
